Test [1] addresses DNMT3A2 wild type, full-length, purified (human). Kind of test: SEC + other: mass photometry.
Test [2] has the same target. Put plainly: SEC. On the technique in general: In gel filtration, larger molecules generally elute earlier.
Test [3] has as its target DNMT3A2 D876A, full-length, purified (human). Put plainly: SEC + other: mass photometry.
Test [4] has the same target. Kind of test: SEC.
Test [5] deals with DNMT3A2 L859F/R882H, full-length, purified (human). Kind of test: SEC.
Test [6] addresses DNMT3A2 L859F/D876A/R882H, full-length, purified (human). Kind of test: SEC.
For test [7], the target named is DNMT3A2 R882H, full-length, purified (human). Put plainly: SEC.
Test [8] has as its target DNMT3A2 D876A/R882H, full-length, purified (human). Kind of test: SEC.

One may read the stoichiometry N as a count of units in the complex or per binding partner. “DNMT3A2 wild type, full-length, purified (enzyme)”: the stoichiometry N in test [1] and in test [2] was 4 throughout.
For the substance “DNMT3A2 D876A, full-length, purified (enzyme)”, the stoichiometry N in test [3] and in test [4] was 2 in each case.
Substance “DNMT3A2 L859F/R882H, full-length, purified (enzyme)” registered a stoichiometry N in test [5] of 4.
On to “DNMT3A2 L859F/D876A/R882H, full-length, purified (enzyme)”, for which the stoichiometry N in test [6] was 2.
Take “DNMT3A2 R882H, full-length, purified (enzyme)”: the stoichiometry N in test [7] was found to be 4.
Substance “DNMT3A2 D876A/R882H, full-length, purified (enzyme)” had a stoichiometry N in test [8] of 2.

(Values after paper doi:10.1101/2025.09.24.678339.)
